Columns and labels:
[1] = target: extracellular tau in the form of paired helical filaments (ePHF tau) (UniProt P10636); assay: anti-eTau ELISA of ExpiCHO supernatant, concentration of tau-binding antibody
[2] = target: ePHF tau (tau in the form of paired helical filaments, immobilized on plate) (UniProt P10636); assay: ePHF tau ELISA; […]; rep 1
[3] = target: ePHF tau (tau in the form of paired helical filaments, immobilized on plate) (UniProt P10636); assay: ePHF tau ELISA; […]; rep 2
[4] = target: ePHF tau (tau in the form of paired helical filaments, immobilized on plate) (UniProt P10636); assay: ePHF tau ELISA; 0.5 ng/mL; rep 1
[5] = target: ePHF tau (tau in the form of paired helical filaments, immobilized on plate) (UniProt P10636); assay: ePHF tau ELISA; 0.5 ng/mL; rep 2
[6] = target: ePHF tau (tau in the form of paired helical filaments, immobilized on plate) (UniProt P10636); assay: ePHF tau ELISA; 4.1 ng/mL; rep 1
[7] = target: ePHF tau (tau in the form of paired helical filaments, immobilized on plate) (UniProt P10636); assay: ePHF tau ELISA; 4.1 ng/mL; rep 2
[8] = target: ePHF tau (tau in the form of paired helical filaments, immobilized on plate) (UniProt P10636); assay: ePHF tau ELISA; 12.3 ng/mL; rep 1
[9] = target: ePHF tau (tau in the form of paired helical filaments, immobilized on plate) (UniProt P10636); assay: ePHF tau ELISA; 12.3 ng/mL; rep 2
[10] = target: ePHF tau (tau in the form of paired helical filaments, immobilized on plate) (UniProt P10636); assay: ePHF tau ELISA; 37.0 ng/mL; rep 1
[11] = target: ePHF tau (tau in the form of paired helical filaments, immobilized on plate) (UniProt P10636); assay: ePHF tau ELISA; 37.0 ng/mL; rep 2
[12] = target: ePHF tau (tau in the form of paired helical filaments, immobilized on plate) (UniProt P10636); assay: ePHF tau ELISA; 111.1 ng/mL; rep 1
[13] = target: ePHF tau (tau in the form of paired helical filaments, immobilized on plate) (UniProt P10636); assay: ePHF tau ELISA; 111.1 ng/mL; rep 2
[14] = target: ePHF tau (tau in the form of paired helical filaments, immobilized on plate) (UniProt P10636); assay: ePHF tau ELISA; 333.3 ng/mL; rep 1
[15] = target: ePHF tau (tau in the form of paired helical filaments, immobilized on plate) (UniProt P10636); assay: ePHF tau ELISA; 333.3 ng/mL; rep 2
[16] = target: ePHF tau (tau in the form of paired helical filaments, immobilized on plate) (UniProt P10636); assay: ePHF tau ELISA; 1000.0 ng/mL; rep 1
[17] = target: ePHF tau (tau in the form of paired helical filaments, immobilized on plate) (UniProt P10636); assay: ePHF tau ELISA; 1000.0 ng/mL; rep 2
[18] = target: wild-type tau (Tau441) (human) (UniProt P10636); assay: ELISA, Tau441 on plate; antibody at […]
Chain of wild-type tau (Tau441) (human) (P10636 other isoform, or with tags, fused parts or gaps limits assumed): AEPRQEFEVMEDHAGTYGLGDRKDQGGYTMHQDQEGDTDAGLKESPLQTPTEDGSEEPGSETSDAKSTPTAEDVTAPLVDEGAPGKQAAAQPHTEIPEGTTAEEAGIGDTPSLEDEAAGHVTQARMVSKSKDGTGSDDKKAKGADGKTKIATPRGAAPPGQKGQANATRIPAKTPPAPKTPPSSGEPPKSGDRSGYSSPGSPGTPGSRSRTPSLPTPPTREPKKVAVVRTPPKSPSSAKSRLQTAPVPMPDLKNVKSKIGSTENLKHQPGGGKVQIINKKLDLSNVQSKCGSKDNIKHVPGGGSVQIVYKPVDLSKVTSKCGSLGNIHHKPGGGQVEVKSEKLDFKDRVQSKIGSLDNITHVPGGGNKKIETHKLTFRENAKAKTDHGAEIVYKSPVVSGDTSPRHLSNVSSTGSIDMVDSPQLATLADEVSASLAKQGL

[19] = target: wild-type tau (Tau441) (human) (UniProt P10636); assay: ELISA, Tau441 on plate; antibody at 4.1 ng/mL
[20] = target: wild-type tau (Tau441) (human) (UniProt P10636); assay: ELISA, Tau441 on plate; antibody at 12.3 ng/mL
[21] = target: wild-type tau (Tau441) (human) (UniProt P10636); assay: ELISA, Tau441 on plate; antibody at 37.0 ng/mL
[22] = target: wild-type tau (Tau441) (human) (UniProt P10636); assay: ELISA, Tau441 on plate; antibody at 111.1 ng/mL
[23] = target: wild-type tau (Tau441) (human) (UniProt P10636); assay: ELISA, Tau441 on plate; antibody at 333.3 ng/mL
[24] = target: wild-type tau (Tau441) (human) (UniProt P10636); assay: ELISA, Tau441 on plate; antibody at 1000.0 ng/mL
[25] = target: wild-type tau (Tau441) (human) (UniProt P10636); assay: ELISA, Tau441 on plate; antibody at 0.0 ng/mL [sic]

Chain of extracellular tau in the form of paired helical filaments (ePHF tau) (P10636 other isoform, or with tags, fused parts or gaps limits assumed): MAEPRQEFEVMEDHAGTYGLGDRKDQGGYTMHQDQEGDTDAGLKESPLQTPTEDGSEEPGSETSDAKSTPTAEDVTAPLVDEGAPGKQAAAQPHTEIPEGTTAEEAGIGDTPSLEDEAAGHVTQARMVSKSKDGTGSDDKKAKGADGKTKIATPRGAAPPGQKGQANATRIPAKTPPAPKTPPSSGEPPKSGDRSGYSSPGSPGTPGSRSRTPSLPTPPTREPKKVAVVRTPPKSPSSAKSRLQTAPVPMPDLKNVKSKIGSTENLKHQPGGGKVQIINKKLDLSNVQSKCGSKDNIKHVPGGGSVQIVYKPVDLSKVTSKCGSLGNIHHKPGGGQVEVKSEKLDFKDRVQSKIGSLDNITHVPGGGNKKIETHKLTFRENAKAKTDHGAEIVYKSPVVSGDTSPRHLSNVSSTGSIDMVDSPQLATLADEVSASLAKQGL

| Substance | OD450 [2] | OD450 [3] | OD450 [4] | OD450 [5] | OD450 [6] | OD450 [7] | OD450 [8] | OD450 [9] | OD450 [10] | OD450 [11] | OD450 [12] | OD450 [13] | OD450 [14] | OD450 [15] | OD450 [16] | OD450 [17] | OD450 [18] [OD450] | OD450 [19] [OD450] | OD450 [20] [OD450] | OD450 [21] [OD450] | also measured |
| --- | --- | --- | --- | --- | --- | --- | --- | --- | --- | --- | --- | --- | --- | --- | --- | --- | --- | --- | --- | --- | --- |
| PHF1 antibody expressed from viral genome construct TAU_ITR86 (PHF-1 LF2AH) (antibody; other documents disagree on this pair) | – | – | – | – | – | – | – | – | – | – | – | – | – | – | – | – | – | – | – | – | anti-eTau ELISA antibody concentration [1]: 1530 ng/mL |
| 2G9.F10 (BioLegend monoclonal murine anti-tau, 157-168; cat #824601) (antibody) | 0.1 | 0.1 | 0 | 0 | 0.3 | 0.3 | 0.7 | 0.9 | 1.6 | 2 | 2.4 | 2.8 | 2.9 | 3 | 3.1 | 3.1 | – | – | – | – | – |
| PHF-6 (BioLegend monoclonal murine anti-tau phospho Th231; cat #828901) (antibody) | 0.2 | 0.2 | 0.1 | 0 | 0.4 | 0.5 | 1.1 | 1.3 | 1.9 | 2.3 | 2.7 | 2.9 | 3 | 3.1 | 3.2 | 3.1 | – | – | – | – | – |
| 43D (BioLegend monoclonal murine anti-tau, 1-100; cat #816601) (antibody) | 0.7 | 0.8 | 0.3 | 0.3 | 1.7 | 1.9 | 3 | 3.1 | 3.2 | 3.2 | 3.2 | 3.2 | 3.2 | 3.1 | 3.2 | 3.1 | – | – | – | – | – |
| Tau5 (BioLegend monoclonal murine anti-tau, 210-230; cat #806401) (antibody) | 0.4 | 0.4 | 0.1 | 0.1 | 0.8 | 0.9 | 1.7 | 2.1 | 2.6 | 2.9 | 3.2 | 3.2 | 3.2 | 3.2 | 3.2 | 3.2 | – | – | – | – | – |
| 2G9.F10 (anti-tau, 157-168; BioLegend cat #824601) (antibody) | – | – | – | – | – | – | – | – | – | – | – | – | – | – | – | – | 0.1 | 0.1 | 0.2 | 0.5 | OD450 [22]: 0.9 OD450; OD450 [23]: 1.6 OD450; OD450 [24]: 2.2 OD450; OD450 [25]: 0 OD450 |
| Tau12 (BioLegend monoclonal murine anti-tau, 6-18; cat #806501) (antibody) | 1 | 1 | 0.4 | 0.4 | 2.2 | 2.4 | 3.2 | 3.2 | 3.2 | 3.2 | 3.2 | 3.2 | 3.2 | 3.1 | 3.2 | 3.1 | – | – | – | – | – |
| PHF1 antibody expressed from viral genome construct TAU_ITR70 (PHF-1 LF2AH) (antibody; other documents disagree on this pair) | – | – | – | – | – | – | – | – | – | – | – | – | – | – | – | – | – | – | – | – | anti-eTau ELISA antibody concentration [1]: 4280 ng/mL |
| Tau46 (anti-tau, 404-421; BioLegend cat #806601) (antibody) | – | – | – | – | – | – | – | – | – | – | – | – | – | – | – | – | 0.2 | 0.4 | 1 | 2 | OD450 [22]: 3 OD450; OD450 [23]: 3.2 OD450; OD450 [24]: 3.2 OD450; OD450 [25]: 0.1 OD450 |
| 43D (anti-tau, 1-100; BioLegend cat #816601) (antibody) | – | – | – | – | – | – | – | – | – | – | – | – | – | – | – | – | 0.4 | 0.9 | 2 | 3 | OD450 [22]: 3.2 OD450; OD450 [23]: 3.3 OD450; OD450 [24]: 3.2 OD450; OD450 [25]: 0 OD450 |
| Tau-13 (BioLegend monoclonal murine anti-tau, 20-35; cat #835201) (antibody) | 0.6 | 0.7 | 0.2 | 0.2 | 1.4 | 1.8 | 2.8 | 3.1 | 3.2 | 3.2 | 3.2 | 3.2 | 3.2 | 3.2 | 3.2 | 3.2 | – | – | – | – | – |
| Tau-13 (anti-tau, 20-35; BioLegend cat #835201) (antibody) | – | – | – | – | – | – | – | – | – | – | – | – | – | – | – | – | 0.2 | 0.5 | 1.2 | 2.3 | OD450 [22]: 3.1 OD450; OD450 [23]: 3.2 OD450; OD450 [24]: 3.2 OD450; OD450 [25]: 0 OD450 |
| PHF-6 (anti-tau phospho Th231; BioLegend cat #828901) (antibody) | – | – | – | – | – | – | – | – | – | – | – | – | – | – | – | – | 0.1 | 0 | 0 | 0 | OD450 [22]: 0 OD450; OD450 [23]: 0 OD450; OD450 [24]: 0.1 OD450; OD450 [25]: 0 OD450 |
| PHF-13 (BioLegend monoclonal murine anti-tau phospho Ser396; cat #829001) (antibody) | 0 | 0 | 0 | 0 | 0.1 | 0 | 0.1 | 0.1 | 0.3 | 0.3 | 0.6 | 0.7 | 1.2 | 1.2 | 1.9 | 2 | – | – | – | – | – |
| Tau5 (anti-tau, 210-230; BioLegend cat #806401) (antibody) | – | – | – | – | – | – | – | – | – | – | – | – | – | – | – | – | 0.2 | 0.6 | 1.2 | 2.6 | OD450 [22]: 3.3 OD450; OD450 [23]: 3.3 OD450; OD450 [24]: 3.3 OD450; OD450 [25]: 0.1 OD450 |
| Tau12 (anti-tau, 6-18; BioLegend cat #806501) (antibody) | – | – | – | – | – | – | – | – | – | – | – | – | – | – | – | – | 0.4 | 0.9 | 2 | 3.1 | OD450 [22]: 3.3 OD450; OD450 [23]: 3.3 OD450; OD450 [24]: 3.3 OD450; OD450 [25]: 0 OD450 |
| Tau46 (BioLegend monoclonal murine anti-tau, 404-421; cat #806601) (antibody) | 0.1 | 0 | 0 | 0 | 0.2 | 0.1 | 0.4 | 0.4 | 0.9 | 1 | 1.7 | 2 | 2.3 | 2.6 | 2.8 | 2.9 | – | – | – | – | – |
| PHF1 antibody expressed from viral genome construct TAU_ITR85 (PHF-1 HF.F2AL) (antibody; other documents disagree on this pair) | – | – | – | – | – | – | – | – | – | – | – | – | – | – | – | – | – | – | – | – | anti-eTau ELISA antibody concentration [1]: 18.8 ng/mL |
| PHF-13 (anti-tau phospho Ser396; BioLegend cat #829001) (antibody) | – | – | – | – | – | – | – | – | – | – | – | – | – | – | – | – | 0 | 0 | 0.1 | 0 | OD450 [22]: 0.1 OD450; OD450 [23]: 0.1 OD450; OD450 [24]: 0.1 OD450; OD450 [25]: 0 OD450 |
